B1: Endoglucanase C, P0C2S3 (parent)
chain: MVSFKAGINLGGWISQYQVFSKEHFDTFITEKDIETIAEAGFDHVRLPFDYPIIESDDNVGEYKEDGLSYIDRCLEWCKKYNLGLVLDMHHAPGYRFQDFKTSTLFEDPNQQKRFVDIWRFLAKRYINEREHIAFELLNEVVEPDSTRWNKLMLEYIKAIREIDSTMWLYIGGNNYNSPDELKNLADIDDDYIVYNFHFYNPFFFTHQKAHWSESAMAYNRTVKYPGQYEGIEEFVKNNPKYSFMMELNNLKLNKELLRKDLKPAIEFREKKKCKLYCGEFGVIAIADLESRIKWHEDYISLLEEYDIGGAVWNYKKMDFEIYNEDRKPVSQELVNILARRKT

Variants of: B1
Settings: Acetivibrio thermocellus, pH 7.2, structure 1CEC, whole UniProt chain shown; for Tm / change of melting temperature, mutant - wild type (higher = more stable): Thermal, DSC, Tris 20 mM, reversible: No
[1] = 25 °C, GdnHCl, CD, Tris 50 mM, reversible: yes

| Variant | Tm [°C] | change of melting temperature, mutant - wild type (higher = more stable) [°C] | ddG of mutation (higher = less stable) [1] [kcal/mol] | denaturant midpoint (higher = more stable) [1] [M] | unfolding free energy [1] [kcal/mol] |
| --- | --- | --- | --- | --- | --- |
| MVSFKAGINLGGWISQYQVFSKEHFDTFITEKDIETIAEAGFDHVRLPFDYPIIESDDNVGEYKEDGLSYIDRCLEWCKKYNLGLVLDMHHAPGYRFQDFKTSTLFEDPNQQKRFVDIWRFLAKRYINEREHIAFELLNEVVEPDSTRWNKLMLEYIKAIREIDSTMWLYIGGNNYNSPDELKNLADIDDDYIVYNFHFYNPFFFTHQKAHWSESAMAYNRTVKYPGQYEGIEEFVKNNPKYSFMMELNNLKLNKELLRKDLKPAIEFREKKKCKLYCGEFGVIAIADLESRIKWHEDYISLLEEYDIGGAVWNYKKMDFEIYNEDRKPVSQGLVNILARRKT [E333G] | 69.4 | -1 | – | – | – |
| MVSFKCGINLGGWISQYQVFSKEHFDTFITEKDIETIAEAGFDHVRLPFDYPIIESDDNVGEYKEDGLSYIDRCLEWCKKYNLGLVLDMHHAPGYRFQDFKTSTLFEDPNQQKRFVDIWRFLAKRYINEREHIAFELLNEVVEPDSTRWNKLMLEYIKAIREIDSTMWLYIGGNNYNSPDELKNLADIDDDYIVYNFHFYNPFFFTHQKAHWSESAMAYNRTVKYPGQYEGIEEFVKNNPKYSFMMELNNLKLNKELLRKDLKPAIEFREKKKCKLYCGEFGVIAIADLESRIKWHEDYISLLEEYDIGGAVWNYKKMDFEIYNEDRKPVSQELVNILACRKT [A6C R340C] | 73.4 | – | -1.73 | 2.61 | 8.03 |
| MVSFKAGINLGGWISQYQVFSKEHFDTFITEKDIETIAEAGFDHVRLPFDYPIIESDDNVGEYKEDGLSYIDRCLEWCKKYNLGLVLDMHHAPGYRFQDFKTSTLFEDPNQQKRFVDIWRFLAKRYINEREHIAFELLNEVVEPDSTRWNKLMLEYIKAIREIDSTMWLYIGGNNYNSPDELKNLADIDDDYIVYNFHFYNPFFFTHQKAHWSESAMAYDRAVKYPGQYEGIEEFVKNNPKYSFMMELNNLKLNKELLRKDLKPAIEFREKKKCKLYCGEFGVIAIADLESRIKWHEDYISLLEEYDIGGAVWNYKKMDFEIYNEDRKPVSQELVNILARRKT [N220D T222A] | 68.3 | -2.1 | – | – | – |
| MVSFKAGIDLGGWISQYQVFSKEHFDTFITEKDIETIAEAGFDHVRLPFDYPIIESDDNVGEYKEDGLSYIDRCLEWCKKYNLGLVLDMHHAPGYRFQDFKTSTLFEDPNQQKRFVDIWRFLAKRYINEREHIAFELLNEVVEPDSTRWNKLMLEYIKAIREIDSTMWLYIGGNNYNSPDELKNLADIDDDYIVYNFHFYNPFFFTHQKAHWSESAMAYNRTVKYPGQYEGIEEFVKNNPKYSFMMELNNLKLNKELLRKDLKPAIEFREKKKCKLYCGEFGVIAIADLESRIKWHEDYISLLEEYDIGGAVWNYKKMDFEIYNEDRKPVSQELVNILARRKT [N9D] | 63.9 | -6.5 | – | – | – |
| MVSFKAGINLGGWISQYQVFSKEHFDTFITEKDIETIAEAGFDHVRLPFDYPIIESDDNVGEYKEDGLSYIDRCLEWCKKYNLGLVLDMHHAPGYRFQDFKTSTLFEDPNQQKRFVDIWRFLAKRYINEREHIAFELLNEVVEPDSTRWNKLMLEYIKAIREIDSTMWLYIGGNNYNSPDELKNLADIDDDYIVYNFHFYNPFFFTHQKAHWSESAMAYNRTVKYPGQYEGIEEFVKNNPKYSFMMELNNLKLNKELLRKDLKPAIEFREKKKCKLYCGEFGVIAIADLESRAKWHEDYISLLEEYDIGGAVWNYKKMDFEIYNEDRKPVSQELVNILARRKT [I293A] | 67.6 | -2.8 | – | – | – |
